Assay results as given in patent US20250361317A1 (Janssen / Centocor, published 2025).

Columns and labels:
[1] = target: T1, EMR2W4, huEMR2 GAIN domain + GPS, D261-T540, with C-terminal Avi/6x His tag (human); assay: SPR, row 'SPR (KD) / EMR2' of the Forced Degradation table; first sample batch (in PBS); stress condition of the KD and EMR2 construct not named on the sheet
T1 construct: also called Human EMR2 GAIN domain protein
T1 chain: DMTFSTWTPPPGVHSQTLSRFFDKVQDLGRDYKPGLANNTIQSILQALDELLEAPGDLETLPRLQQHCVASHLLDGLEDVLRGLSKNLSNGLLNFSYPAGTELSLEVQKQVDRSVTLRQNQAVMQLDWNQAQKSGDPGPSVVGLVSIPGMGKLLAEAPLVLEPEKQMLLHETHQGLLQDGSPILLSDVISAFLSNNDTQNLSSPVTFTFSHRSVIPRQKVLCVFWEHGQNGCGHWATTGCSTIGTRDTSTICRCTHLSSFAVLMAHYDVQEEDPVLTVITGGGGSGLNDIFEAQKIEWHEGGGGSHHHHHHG

[2] = target: T2, T-cell receptor with TRBV19 (Vβ17) beta chain on human T cells (human); assay: flow cytometry, percent TRBV19+ of live pan-T cells, Donor 6, 1 hour, 37 °C
T2 construct: whole, on cells; also called Vb17; TRBV19+ T cells
T2 sequence (A0A075B6N1 22-114): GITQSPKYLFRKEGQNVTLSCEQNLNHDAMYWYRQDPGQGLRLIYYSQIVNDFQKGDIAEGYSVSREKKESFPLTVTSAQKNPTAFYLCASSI

[3] = target: T3, human EMR2 (ADGRE2, CD312) on cells (human, UniProt Q9UHX3 24-823); assay: flow cytometry, MOLM-13 cells, 1 hour at 37 °C; mean ± SEM
T3 construct: also called huEMR2 full length; Adhesion G protein-coupled receptor E2
T3 sequence: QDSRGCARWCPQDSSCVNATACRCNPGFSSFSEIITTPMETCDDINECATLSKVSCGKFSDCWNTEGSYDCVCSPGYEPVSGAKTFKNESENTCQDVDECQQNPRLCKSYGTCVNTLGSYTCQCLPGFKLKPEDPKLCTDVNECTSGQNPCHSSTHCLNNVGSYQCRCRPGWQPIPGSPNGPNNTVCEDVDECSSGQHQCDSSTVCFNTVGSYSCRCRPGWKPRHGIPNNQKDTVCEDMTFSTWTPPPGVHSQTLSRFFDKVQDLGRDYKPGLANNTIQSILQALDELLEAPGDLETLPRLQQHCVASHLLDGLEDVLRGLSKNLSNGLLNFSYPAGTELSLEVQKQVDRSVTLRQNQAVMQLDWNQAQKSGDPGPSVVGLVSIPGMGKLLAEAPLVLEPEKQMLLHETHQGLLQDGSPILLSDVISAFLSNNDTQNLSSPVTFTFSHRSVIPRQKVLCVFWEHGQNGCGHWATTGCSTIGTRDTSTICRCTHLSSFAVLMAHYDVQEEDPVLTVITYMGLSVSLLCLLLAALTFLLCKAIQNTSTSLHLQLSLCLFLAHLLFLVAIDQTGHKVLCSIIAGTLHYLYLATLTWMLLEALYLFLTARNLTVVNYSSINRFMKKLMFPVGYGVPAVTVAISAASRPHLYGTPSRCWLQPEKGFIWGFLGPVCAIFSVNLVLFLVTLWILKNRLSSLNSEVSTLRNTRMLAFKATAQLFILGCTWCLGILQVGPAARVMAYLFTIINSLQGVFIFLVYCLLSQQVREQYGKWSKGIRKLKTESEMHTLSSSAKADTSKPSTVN
Protocol: (§1) After secondary detection with AF647-labeled material, the MFI signal was analyzed to generate an EC50 value. Curves are representative of 3 independent experiments.

[4] = target: T2, T-cell receptor with TRBV19 (Vβ17) beta …; assay: flow cytometry, percent TRBV19+ of live pan-T cells, Donor 3, 1 hour, 37 °C
[5] = target: T3, human EMR2 (ADGRE2, CD312) on cells; assay: flow cytometry, OCI-AML2 cells, 1 hour at 37 °C; mean ± SEM
Protocol: as §1

[6] = target: T3, human EMR2 (ADGRE2, CD312) on cells; assay: flow cytometry, OCI-AML5 cells, 1 hour at 37 °C; mean ± SEM
Protocol: as §1

FcRn (human) = target: T4, FcRn (human) (human, UniProt P55899 24-297; P61769 21-119); assay: FcRn binding (human, pH 6)
T4 construct: also called neonatal Fc receptor
T4 sequence (P55899 24-297 limits assumed, chain 1 of 2): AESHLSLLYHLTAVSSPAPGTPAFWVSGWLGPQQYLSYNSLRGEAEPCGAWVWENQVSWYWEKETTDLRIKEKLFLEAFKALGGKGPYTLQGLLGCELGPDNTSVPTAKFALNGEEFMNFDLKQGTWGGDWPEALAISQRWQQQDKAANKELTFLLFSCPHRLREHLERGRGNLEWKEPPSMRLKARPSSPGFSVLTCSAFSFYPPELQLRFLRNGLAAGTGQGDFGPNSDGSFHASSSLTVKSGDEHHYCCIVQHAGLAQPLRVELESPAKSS
T4 sequence (P61769 21-119 limits assumed, chain 2 of 2): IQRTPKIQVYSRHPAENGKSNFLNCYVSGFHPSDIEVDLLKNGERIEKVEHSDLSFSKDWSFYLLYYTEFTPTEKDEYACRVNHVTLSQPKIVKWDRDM

[7] = target: T1, EMR2W4, huEMR2 GAIN domain + GPS, …; assay: SPR, EMR2 arm, forced degradation study: Thermal
[8] = target: T1, EMR2W4, huEMR2 GAIN domain + GPS, …; assay: SPR protein binding (human), binding to EMR2W4
[9] = target: T1, EMR2W4, huEMR2 GAIN domain + GPS, …; assay: SPR, EMR2 arm, forced degradation study: pH 5.0
[10] = target: T2, T-cell receptor with TRBV19 (Vβ17) beta …; assay: flow cytometry, percent TRBV19+ of live pan-T cells, Donor 4, 1 hour, 37 °C

B1: EMVBB8 (EMR2 x TRBV19 bispecific antibody) (bispecific antibody, human IgG1, kappa, L234A L235A)
heavy 1: DIQMTQSPSSLSASVGDRVTITCRSSQSLVHSNRNTYLHWYQQKPGCAPKLLIYKVSNRFSGVPSRFSGSGSGTDFTLTISSLQPEDFATYYCSQSTHVPFTFGQGTKLEIKGGGSGGSGGCPPCGGSGGQVQLQESGPGLVKPSETLSLTCTVSGYSITSGYFWNWIRQFPGKGLEWMGYISYDGSNNYNPSLKSRITISRDTSKNQFSLKLSSVTAADTAVYYCASPSPGTGYAVDYWGCGTTVTVSSEPKSSDKTHTCPPCPAPEAAGGPSVFLFPPKPKDTLMISRTPEVTCVVVSVSHEDPEVKFNWYVDGVEVHNAKTKPREEQYNSTYRVVSVLTVLHQDWLNGKEYKCKVSNKALPAPIEKTISKAKGQPREPQVYTLPPSREEMTKNQVSLWCLVKGFYPSDIAVEWESNGQPENNYKTTPPVLDSDGSFFLYSKLTVDKSRWQQGNVFSCSVMHEALHNHYTQKSLSLSPGK
heavy 2: EVQLVESGGGLVQPGGSLRLSCTASGFTFSRYSMNWVRQAPGEGLEWVSYISSSSNTIYYADSVKGRFTISRDNAKNSLYLQMNSLRDEDTAVYYCARDQGTPFDYWGQGTLVTVSSASTKGPSVFPLAPSSKSTSGGTAALGCLVKDYFPEPVTVSWNSGALTSGVHTFPAVLQSSGLYSLSSVVTVPSSSLGTQTYICNVNHKPSNTKVDKKVEPKSCDKTHTCPPCPAPEAAGGPSVFLFPPKPKDTLMISRTPEVTCVVVSVSHEDPEVKFNWYVDGVEVHNAKTKPREEQYNSTYRVVSVLTVLHQDWLNGKEYKCKVSNKALPAPIEKTISKAKGQPREPQVYTLPPSREEMTKNQVSLSCAVKGFYPSDIAVEWESNGQPENNYKTTPPVLDSDGSFFLVSKLTVDKSRWQQGNVFSCSVMHEALHNRFTQKSLSLSPGK
light: EIVLTQSPSSVSASIGDRVTITCRASQDISSWLGWYQQKPGKAPKLLIYAAISLQSGVPSRFSGSESGTDFTLTISSLQPEDFATYYCHQANSFPLTFGGGTKVEIKRTVAAPSVFIFPPSDEQLKSGTASVVCLLNNFYPREAKVQWKVDNALQSGNSQESVTEQDSKDSTYSLSSTLTLSKADYEKHKVYACEVTHQGLSSPVTKSFNRGEC
notes: also called the bispecific antibody
Kd [1]: 0.154 nM | EC50 [2]: 4.9 nM | EC50 [3]: 53 nM | EC50 [4]: 6.2 nM | EC50 [5]: 55 nM | EC50 [6]: 27 nM | Kd (FcRn (human)): 306 nM | Kd [7]: 0.22 nM | Kd [8]: 0.193 nM | Kd [9]: 0.2 nM | EC50 [10]: 10.6 nM
